The target in one data set is T1, CpgD (CCNA_01210) (Caulobacter vibrioides, UniProt A0A0H3C7D9).
T1 construct: expressed in E. coli ER2566; primers encode N-terminus MQPVKT, C-terminus EAEAV
T1 sequence (A0A0H3C7D9 1-253): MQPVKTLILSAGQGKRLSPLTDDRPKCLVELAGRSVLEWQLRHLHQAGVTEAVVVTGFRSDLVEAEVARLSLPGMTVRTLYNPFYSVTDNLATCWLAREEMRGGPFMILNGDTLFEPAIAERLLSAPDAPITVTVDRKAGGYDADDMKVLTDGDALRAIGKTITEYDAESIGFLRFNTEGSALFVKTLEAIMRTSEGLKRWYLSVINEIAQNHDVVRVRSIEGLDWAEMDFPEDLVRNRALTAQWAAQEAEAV
Nature of the data set: thermal shift assay (GloMelt dye). Particulars: 10 mM nucleotide, 50 mM MgCl2, 50 mM HEPES pH 7.5; Tm change only in figure. In kind it is binding.

Substrate in data set [1]: O=C(O)[C@@H](CO)OP(=O)(O)O
Nature of the data set: HPAEC quantification of CDP-glycerate. It is filed as biochemical, Caulobacter vibrioides. Particulars: 10 mM CTP, 50 mM MgCl2, 50 mM HEPES pH 7.5, 45 min; pH 7.5. From the text:
(§1) HPAEC quantification of CDP-glycerate on CpgD (CCNA_01210)

Substrate in data set [2]: O=C(O)[C@H](O)COP(=O)(O)O
Nature of the data set: HPAEC quantification of CDP-glycerate. The conditions noted are these: 10 mM CTP, 50 mM MgCl2, 50 mM Tris pH 8.0, 3.5 h; pH 8.0. In kind it is biochemical, Caulobacter vibrioides.
From the text: as §1

Substrate in data set [3]: Nc1ccn([C@@H]2O[C@H](COP(=O)(O)OP(=O)(O)OP(=O)(O)O)[C@@H](O)[C@H]2O)c(=O)n1
Nature of the data set: HPAEC quantification of CDP-glycerate. In kind it is biochemical, Caulobacter vibrioides.
From the text: as §1

Substrate in data set [4]: O=C(O)[C@H](CO)OP(=O)(O)O
Kind of data set: HPAEC quantification of CDP-glycerate. In kind it is biochemical, Caulobacter vibrioides. The conditions noted are these: 10 mM CTP, 50 mM MgCl2, 50 mM HEPES pH 7.5, 45 min; pH 7.5.
From the text: as §1

The mark [5] stands for this setting: 10 mM 3-phosphoglycerate, 50 mM MgCl2, 50 mM Tris pH 8.0, 3.5 h, Michaelis-Menten fit, pH 8.0.
[6] abbreviates: 10 mM D-2-phosphoglycerate, 50 mM MgCl2, 50 mM HEPES pH 7.5, 45 min, Hill fit, cooperative (Hill coefficient 2.5), pH 7.5.

`Nc1ncnc2c1ncn2[C@@H]1O[C@H](COP(=O)(O)OP(=O)(O)OP(=O)(O)O)[C@@H](O)[C@H]1O` [ATP]: at CpgD (CCNA_01210), the Tm entry is reported as “we consistently measured a lower melting temperature in the presence of ATP”.

Consider `Nc1ccn([C@@H]2O[C@H](COP(=O)(O)OP(=O)(O)OP(=O)(O)O)[C@@H](O)[C@H]2O)c(=O)n1` [CTP], for which the Tm result on CpgD (CCNA_01210) is recorded as “increase in the melting temperature of the protein was only observed upon addition of CTP”.

B1: CpgD (CCNA_01210) (Caulobacter vibrioides NA1000) (protein)
chain: T1 sequence (A0A0H3C7D9 1-253)
notes: expressed in E. coli ER2566; primers encode N-terminus MQPVKT, C-terminus EAEAV
With B1, the Km in data set [1] turned out to be 0.84 ± 0.16 mM; in data set [2], 10.9 ± 0.7 mM; in data set [3] (setting [5]), 4.8 ± 0.9 mM; in data set [4], 3.1 ± 0.6 mM. In addition, the Vmax in data set [1] amounted to 3.2 µmol/min/mg; in data set [2], 0.72 µmol/min/mg; in data set [3] (setting [5]), 0.4 µmol/min/mg; in data set [3] (setting [6]), 3.6 µmol/min/mg; in data set [4] it was 1.5 µmol/min/mg. Also, in data set [3] (setting [6]), the K0.5 is 6.4 ± 0.8 mM.

As usually defined, the Km is the substrate concentration at which the rate is half of its maximum. For orientation: Vmax means the rate approached at saturating substrate.

The record behind these values is article PMC12275187, “CpgD is a phosphoglycerate cytidylyltransferase required for ceramide diphosphoglycerate synthesis” (The Journal of Biological Chemistry, 2025).
